Source: patent US20150284465A1 (Chugai, published 2015)
Where a chain is given by its changes, count along the chain named. One block for each binder: values may come before it.

Key:
[1] = target: T1, soluble GPC3 core polypeptide (human, UniProt P51654 25-563); assay: competitive ELISA on plate-immobilized soluble GPC3 core polypeptide; competitor: biotinylated H0L0 antibody at 0.3 µg/mL
T1 construct: also called soluble GPC3 core protein; soluble glypican-3 core
Method: 100 μl of the polypeptide solution was added to each well of a 96-well plate. […] After 200 μl of blocking buffer was added, the plate was blocked at 4° C. overnight or longer. […] The plate was incubated at room temperature for one hour, and then washed five times with washing buffer using SkanWasher 400 (Molecular Devices). Goat anti-streptavidin alkaline phosphatase (Zymed) was 20,000-times diluted with substrate buffer and added to the plate at 100 μl/well. The plate was incubated at room temperature for one hour, and then washed five times with washing buffer using SkanWasher 400. The concentration of phosphatase substrate (Sigma) was adjusted to 1 mg/ml using the substrate buffer, and the solution was added to the plate at 100 μl/well. The plate was incubated for one hour.

[2] = target: T1, soluble GPC3 core polypeptide; assay: competitive ELISA on plate-immobilized soluble GPC3 core polypeptide; competitor: biotinylated GPC3-H2L2 antibody at 0.3 µg/mL
Method: The binding activities of prepared antibodies were determined by competitive ELISA. […] The plates were incubated at 4° C. for 30 minutes or more for blocking. […] The plates were incubated at room temperature for one hour, and then washed five times with washing buffer using SkanWasher 400 (Molecular Devices). 100 μl of goat anti streptavidin alkaline phosphatase (Zymed) 20,000-times diluted with substrate buffer was added to each well. The plates were incubated at room temperature for one hour, and then washed five times with washing buffer using SkanWasher 400. Phosphatase Substrate (Sigma) was prepared at 1 mg/ml using substrate buffer, and added to each well (100 μl). The plates were incubated for one hour.

[3] = target: T2, recombinant human IL-6R sR (R&D systems) (human, UniProt P08887 20-358); assay: SPR (Biacore T100), antibody captured on Protein A, rhIL-6sR as analyte, 25 C
T2 construct: Bought soluble receptor; also called rhIL-6sR; rhIL-s6R
T2 sequence (looked up): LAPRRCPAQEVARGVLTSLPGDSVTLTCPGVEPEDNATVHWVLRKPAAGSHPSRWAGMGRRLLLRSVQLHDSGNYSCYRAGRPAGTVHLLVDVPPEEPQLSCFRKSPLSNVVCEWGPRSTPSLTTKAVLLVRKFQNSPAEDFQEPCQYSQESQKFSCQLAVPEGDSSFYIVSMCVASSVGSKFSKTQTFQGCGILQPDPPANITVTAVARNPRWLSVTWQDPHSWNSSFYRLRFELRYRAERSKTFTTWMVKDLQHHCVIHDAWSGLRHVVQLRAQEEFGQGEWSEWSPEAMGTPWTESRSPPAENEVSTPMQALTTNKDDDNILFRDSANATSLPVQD
Method: The antigen-antibody interaction was measured by immobilizing 1,800 to 2,600 RU (resonance units) of rec-Protein A (Zymed) (hereinafter “Protein A”) onto a sensor chip, binding various antibodies onto the chip, and then flowing the antigen over the chip as an analyte. Various concentrations of recombinant human IL-6R sR (R&D systems) (hereinafter “rhIL-6sR”) were used as the antigen. All measurements were carried out at 25° C. The kinetic parameters, association rate constant kₐ (1/Ms) and dissociation rate constant kd (1/s) were calculated from the sensorgrams obtained by measurement. Then, KD (M) was determined based on the rate constants. The respective parameters were determined using Biacore T100 Evaluation Software (Biacore).

[4] = target: T3, SR344 (N-terminal 1st to 344th amino acids of soluble human IL-6R) (human, UniProt P08887 20-344, limits assumed); assay: cell-based or functional assay
T3 sequence (looked up): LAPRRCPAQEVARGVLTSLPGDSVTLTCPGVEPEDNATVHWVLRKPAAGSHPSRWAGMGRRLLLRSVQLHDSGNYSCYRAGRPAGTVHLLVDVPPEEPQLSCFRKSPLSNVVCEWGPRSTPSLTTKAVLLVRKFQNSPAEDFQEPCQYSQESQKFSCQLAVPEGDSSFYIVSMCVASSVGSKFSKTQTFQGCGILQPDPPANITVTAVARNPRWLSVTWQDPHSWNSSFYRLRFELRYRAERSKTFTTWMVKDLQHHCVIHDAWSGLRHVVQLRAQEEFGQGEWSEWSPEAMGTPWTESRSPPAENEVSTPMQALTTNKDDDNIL

[5] = target: T4, human-derived Fcγ receptor IIb (Recombinant Human FcRIIB/C, R&D systems) (human, UniProt P31994 46-217, limits assumed); assay: SPR (Biacore T100), FcγRIIb immobilized on CM5, antibody as analyte at 200 µg/ml, 25 C
T4 construct: Bought recombinant protein, construct not described; also called FcγRIIb
T4 sequence (looked up): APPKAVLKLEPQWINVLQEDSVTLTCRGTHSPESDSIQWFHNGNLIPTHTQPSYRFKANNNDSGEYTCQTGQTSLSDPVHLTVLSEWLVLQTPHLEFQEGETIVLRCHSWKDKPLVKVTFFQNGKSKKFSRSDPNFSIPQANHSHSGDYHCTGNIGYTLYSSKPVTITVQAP
Method: The FcγRIIb binding was assessed by the procedure described below. […] The amounts of bound antibody were compared. […] FcγRIIb was immobilized onto the sensor chip CM5 (Biacore) by the amine coupling method. The final amount of immobilized FcγRIIb was about 4,300 RU. Then, the running buffer was injected until the baseline was stabilized. The measurement was carried out after the baseline was stabilized. […] The running buffer used was HBS-EP+ (10 mM HEPES, 0.15M NaCl, 3 mM EDTA, 0.05% v/v Surfactant P20), and the flow rate was 20 μl/min. The measurement temperature was 25° C. The concentration of each IgG or modified form thereof was adjusted to 200 μg/ml. 20 μl of an analyte was injected and allowed to interact with the immobilized FcγRIIb. After interaction, the analyte was dissociated from FcγRIIb and the sensor chip was regenerated by injecting 200 μl of the running buffer. […] This series of injection was repeated twice.

[6] = target: T5, hFcγRIIIaV-His6 (human-derived Fcγ receptor IIIa, Val) (human, UniProt P08637 17-208, limits assumed); assay: SPR (Biacore T100), hFcγRIIIaV-His6 immobilized on CM5, antibody as analyte at 250 µg/ml
T5 construct: also called FcγRIIIa (Val); not shown: His6 tag
Method: The FcγRIIIa binding was assessed by the procedure described below. […] The amounts of bound antibody were compared. […] FcγRIIIa was immobilized onto the sensor chip CM5 (Biacore) by the amine coupling method. […] The running buffer used was HBS-EP+, and the flow rate was 5 μl/min. The sample concentration was adjusted to 250 μg/ml using HBS-EP+. The analysis included two steps: two minutes of association phase where 10 μl of an antibody solution was injected and the subsequent four minutes of dissociation phase where the injection was switched with HBS-EP+. After the dissociation phase, the sensor chip was regenerated by injecting 20 μl of 5 mM hydrochloric acid. The association, dissociation, and regeneration constitute one analysis cycle. Various antibody solutions were injected to obtain sensorgrams. […] 1999 August; 29(8):2613-24.

T1 sequence (P51654 other isoform, or with tags, fused parts or gaps limits assumed): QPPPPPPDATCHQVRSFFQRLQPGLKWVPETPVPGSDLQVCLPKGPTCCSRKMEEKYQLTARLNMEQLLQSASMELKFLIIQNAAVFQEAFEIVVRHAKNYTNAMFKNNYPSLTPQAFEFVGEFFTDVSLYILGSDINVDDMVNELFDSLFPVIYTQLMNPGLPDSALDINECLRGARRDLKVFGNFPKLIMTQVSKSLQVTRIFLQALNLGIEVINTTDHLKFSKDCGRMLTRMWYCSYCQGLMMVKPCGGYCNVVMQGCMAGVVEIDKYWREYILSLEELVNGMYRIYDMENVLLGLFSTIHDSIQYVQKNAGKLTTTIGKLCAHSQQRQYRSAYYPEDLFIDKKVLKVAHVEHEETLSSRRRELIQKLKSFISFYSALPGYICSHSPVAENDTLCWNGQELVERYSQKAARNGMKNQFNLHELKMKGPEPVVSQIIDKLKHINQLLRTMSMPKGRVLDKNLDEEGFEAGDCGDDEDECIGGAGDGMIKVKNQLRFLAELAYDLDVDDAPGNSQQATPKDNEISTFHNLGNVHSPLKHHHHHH
T5 sequence (P08637 17-208 F176V limits assumed): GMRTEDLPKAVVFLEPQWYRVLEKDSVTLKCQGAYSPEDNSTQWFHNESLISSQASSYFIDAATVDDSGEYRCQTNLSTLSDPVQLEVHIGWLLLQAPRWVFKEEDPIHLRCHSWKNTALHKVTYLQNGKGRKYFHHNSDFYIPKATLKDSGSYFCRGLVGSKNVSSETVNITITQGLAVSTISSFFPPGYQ

binding result [1]: binds
B1: antibody H15L4 (antibody, V domains shown)
VH: QVQLVQSGAEVKKPGASVKVSCKASGYTFTDYEMHWIRQPPGQGLEWIGAIDPKTGDTAYSQKFKGRVTLTADKSTSTAYMELSSLTSEDTAVYYCTRFYSYTYWGQGTLVTVSS
VL: DIVMTQSPLSLPVTPGEPASISCRSSQSLVHSNRNTYLHWYQQKPGQAPRLLIYKVSNRFSGVPDRFSGSGSGTDFTLKISRVEAEDVGVYYCSQNTHVPPTFGQGTKLEIK
notes: Point mutant of the anti-glypican 3 antibody H0L0

IC50 (read off the curve) [2]: ~0.9 µg/mL
B2: GPC3_H2L2 (antibody, human IgG1, kappa, V domains shown)
VH: B1 VH with I37V, P40A, I48M, I51L
VL: DVVMTQSPLSLPVTPGEPASISCRSSQSLVHSNRNTYLHWYLQKPGQSPQLLIYKVSNRFSGVPDRFSGSGSGTDFTLKISRVEAEDVGVYYCSQNTHVPPTFGQGTKLEIKR

binding result [2]: binds
B3: GPC3_H1L1 (antibody, human IgG1, kappa, V domains shown)
VH: B1 VH with Q43K, D52N, Q107R
VL: B2 VL with V2I, E17Q, S25A, Q27R, L42Q, S48A, Q50R, Q105R
notes: Anti-human GPC3 antibody

IC50 (read off the curve) [2]: ~0.9 µg/mL
B4: GPC3_H3L3 (antibody, human IgG1, kappa, V domains shown)
VH: B1 VH with K19T, Q43E, Q62E, K63S, K65Q, G66D
VL: B2 VL with V2I, R24Q, S25A, Q27E, L109V, K112E

binding result [1]: binds
B5: Hspu2.2Lspu2.2 antibody (antibody, V domains shown)
VH: B1 VH with Q43K, D52N, Q107R
VL: B1 VL with E17Q, S25A, Q27R, Q105R
notes: Anti-glypican 3, raised isoelectric point; also called Hu2.2Lu2.2

binding result [1]: binds
B6: Hspd1.8Lspd1.6 antibody (antibody, V domains shown)
VH: B1 VH with K19T, Q43E, K63S, K65Q, G66D
VL: B1 VL with S25A, Q27E, K79T, R82S, V83L, E84Q
notes: Anti-glypican 3, lowered isoelectric point; also called Hd1.8Ld1.6

Kd [3]: 0.012 nM | fold higher affinity than WT [3]: ~50 fold | koff [3]: 2.8e-05 s⁻¹ | kon [3]: 2.3e+06 M⁻¹ s⁻¹ | BaF3/gp130 neutralizing activity, 100% inhibitory concentration against WT [4]: ~50 fold
B7: RD-6 (antibody, V domains shown)
VH: QVQLQESGPGLVRPSQTLSLTCTVSGYSITSDHAWSWVRQPPGRGLEWIGYISYSGITTYNPSLKSRVTMLRDTSKNQFSLRLSSVTAADTAVYYCARLLARATAMDYWGQGSLVTVSS
VL: DIQMTQSPSSLSASVGDRVTITCRASQDISSYLNWYQQKPGKAPKLLIYYTSRLHSGVPSRFSGSGSGTDFTFTISSLQPEDIATYYCQQGNTLPYTFGQGTKVEIK
notes: VH assembled from the FR and CDR entries of humanized PM-1

binding result [5]: binds | binding result [6]: binds
B8: WT-M17ΔGK (antibody, human IgG1, kappa)
heavy: QVQLQESGPGLVRPSQTLSLTCTVSGYSITSDHAWSWVRQPPGRGLEWIGYISYSGITTYNPSLKSRVTMLRDTSKNQFSLRLSSVTAADTAVYYCARSLARTTAMDYWGQGSLVTVSSASTKGPSVFPLAPSSKSTSGGTAALGCLVKDYFPEPVTVSWNSGALTSGVHTFPAVLQSSGLYSLSSVVTVPSSSLGTQTYICNVNHKPSNTKVDKKVEPKSCDKTHTCPPCPAPPVAGPSVFLFPPKPKDTLMISRTPEVTCVVVDVSHEDPEVKFNWYVDGVEVHNAKTKPREEQYNSTYRVVSVLTVLHQDWLNGKEYKCKVSNKGLPSSIEKTISKAKGQPREPQVYTLPPSRDELTKNQVSLTCLVKGFYPSDIAVEWESNGQPENNYKTTPPVLDSDGSFFLYSKLTVDKSRWQQGNVFSCSVMHEALHNHYTQKSLSLSP
light: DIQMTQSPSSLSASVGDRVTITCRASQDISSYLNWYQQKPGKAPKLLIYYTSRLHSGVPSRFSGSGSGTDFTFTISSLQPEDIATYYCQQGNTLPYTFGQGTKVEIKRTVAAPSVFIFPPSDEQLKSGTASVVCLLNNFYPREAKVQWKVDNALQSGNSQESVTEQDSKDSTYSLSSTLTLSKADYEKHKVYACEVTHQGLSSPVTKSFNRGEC

binding result [5]: binds | binding result [6]: binds
B9: WT-M11ΔGK (antibody)
heavy: QVQLQESGPGLVRPSQTLSLTCTVSGYSITSDHAWSWVRQPPGRGLEWIGYISYSGITTYNPSLKSRVTMLRDTSKNQFSLRLSSVTAADTAVYYCARSLARTTAMDYWGQGSLVTVSSASTKGPSVFPLAPSSKSTSGGTAALGCLVKDYFPEPVTVSWNSGALTSGVHTFPAVLQSSGLYSLSSVVTVPSSSLGTKTYTCNVDHKPSNTKVDKTVERKSCVECPPCPAPPVAGPSVFLFPPKPKDTLMISRTPEVTCVVVDVSQEDPEVQFNWYVDGVEVHNAKTKPREEQFNSTYRVVSVLTVLHQDWLNGKEYKCKVSNKGLPSSIEKTISKAKGQPREPQVYTLPPSQEEMTKNQVSLTCLVKGFYPSDIAVEWESNGQPENNYKTTPPVLDSDGSFFLYSKLTVDKSRWQEGNVFSCSVMHEALHNHYTQKSLSLSL
light: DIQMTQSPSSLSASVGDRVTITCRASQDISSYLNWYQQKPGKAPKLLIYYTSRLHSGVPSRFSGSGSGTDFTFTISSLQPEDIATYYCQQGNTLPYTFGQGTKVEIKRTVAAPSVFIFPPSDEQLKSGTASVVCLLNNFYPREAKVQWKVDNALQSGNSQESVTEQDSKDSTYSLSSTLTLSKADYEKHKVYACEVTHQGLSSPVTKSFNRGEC
